Assay results reported in article PMC7894019.

Target: ZNF191 (purified recombinant) (UniProt P17028 1-368)
Assay: EMSA

Sequence of ZNF191 (purified recombinant) (P17028 whole entry): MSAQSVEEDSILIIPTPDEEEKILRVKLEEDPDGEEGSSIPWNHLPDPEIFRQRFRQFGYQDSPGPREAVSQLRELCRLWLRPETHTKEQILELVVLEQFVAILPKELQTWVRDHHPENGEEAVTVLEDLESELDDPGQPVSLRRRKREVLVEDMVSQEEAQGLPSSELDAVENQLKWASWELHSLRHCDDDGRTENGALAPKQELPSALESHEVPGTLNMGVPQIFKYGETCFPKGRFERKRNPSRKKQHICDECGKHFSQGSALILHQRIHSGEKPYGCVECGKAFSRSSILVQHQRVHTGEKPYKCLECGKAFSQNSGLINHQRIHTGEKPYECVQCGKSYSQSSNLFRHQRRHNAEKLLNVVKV

Binder	binding result
WNT8BP(nt-1178) (dsDNA) DNA 1: GATTATCATGCATTCATTGTATGCCTGTAT DNA 2: ATACAGGCATACAATGAATGCATGATAATC	binds
WNT8BP(nt-1491) (dsDNA) DNA 1: GTGAATTTGTGTATTAATTCTTTATTTTCT DNA 2: AGAAAATAAAGAATTAATACACAAATTCAC	binds
